Assay results from IntAct's records for PubMed 24525235.

Tests used:
twst1_human TWIST1 [1] = target: twst1_human TWIST1 (UniProt Q15672)
twst1_human TWIST1 [2] = target: twst1_human TWIST1 (UniProt Q15672); remark: listed apart in the source

effect of a mutation on the interaction (twst1_human TWIST1 [1])	effect of a mutation on the interaction (twst1_human TWIST1 [2])	Substance
increasing interaction strength		Bromodomain-containing protein 4 (Homo sapiens) (from UniProt O60885-1) D144H
	decreasing interaction strength	Bromodomain-containing protein 4 (Homo sapiens) (from UniProt O60885-1) H437D
